Assay results taken from article PMC12579241.

Columns and labels:
Experiment in all cases: SPR
[1] = biological target: IgG1 Fc fragment (prepared by IdeS digest of bevacizumab) (human)
[2] = biological target: recombinant Fab fragment of trastuzumab (human) [IgG part: P01857]
[3] = biological target: trastuzumab (Herceptin) (human) (UniProt P01834)

“Azo-ProtG (wild-type C2 domain of streptococcal protein G with N-terminal Azo-tag and C-terminal Strep-tag II) (domain or fragment)” showed a Kd [1] of 499 nM and a Kd [2] of 19.7 µM.
Substance “Azo-ProtG^N478R (C2 domain of streptococcal protein G with Asn478 replaced by Arg, N-terminal Azo-ta (domain or fragment)” has a Kd [1] of 682 nM, a Kd [2] of over 256 µM and a Kd [3] of 459 nM.
